Measured values reported in the supplement of paper PMC10567573.
± gives the standard deviation.

Assay: protein stability index of a GFP-peptide fusion (GPS, HEK-293T) (PSI 1-6); higher = more stable
[1] = treatment: DMSO, c terminus: a fixed tail appended
[2] = treatment: MLN4924 1 uM, 8 h, c terminus: a fixed tail appended
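Further: 24-mer peptide tiles fused after GFP, lentivirally expressed, FACS-sorted into six equal bins by GFP/DsRed ratio, decoded by Illumina sequencing, PSI is the read-weighted mean bin number.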

Sequence | protein stability index [1] | protein stability index [2] | protein stability index (treatment: DMSO, c terminus: native) | protein stability index (treatment: MLN4924 1 uM, 8 h, c terminus: native)
LSRKKRLELDDNLDTERPVQKRAR [TRIB3] | 4.79 ± 0.14 | 4.62 ± 0.37 | – | –
LSTDMVHAASDPSSSSGRLSEPDP [SMOC2] | 5.29 ± 0.24 | 5.38 ± 0.15 | – | –
LSTNNNTLRDHFKGISSHSRSSLM [SLC2A12] | 2.93 ± 0.3 | 3.3 ± 0.16 | – | –
LSYVMSGYRCFVCPVEYNNDTNSF [CDS2] | 2.78 ± 0.42 | 2.82 ± 0.45 | – | –
LTDDDVVDWDEEYPPQMGEEYSQI [BTBD10] | 5.15 ± 0.11 | 5.22 ± 0.19 | – | –
LTINPAKRITAHEALKHPWVCQRS [CAMK2B] | 2.55 ± 0.29 | 2.95 ± 0.16 | – | –
LTNIWMARTCAKQNINAPAPATTS [C22orf31] | 2.51 ± 0.27 | 2.59 ± 0.15 | – | –
LTNSEYRSEQSVKLRRQVIQVVLN [ZER1] | 2.51 ± 0.23 | 2.44 ± 0.48 | – | –
LTVVCAAGAEPLPRNGDQWHEIRQ [WEE1] | 2.55 ± 0.34 | 2.49 ± 0.4 | – | –
LTYENVERWLKELRDHADSNIVIM [RAB11A] | 2.21 ± 0.34 | 2.75 ± 0.3 | – | –
LVEETSCQQNMIQELIETNQQLRN [CEP70] | 4.3 ± 0.24 | 4.41 ± 0.3 | – | –
LVGNKSDLRHLRAVPTDEARAFAE [RAB11A] | 4.29 ± 0.34 | 4.39 ± 0.21 | – | –
LVPETEDDRKLAALLKFHTLDSYE [YJU2B] | 3.62 ± 0.34 | 3.58 ± 0.22 | – | –
LVVLRFLTMNSEDERRDAEERASL [KCNK9] | 2.68 ± 0.15 | 2.62 ± 0.28 | – | –
LVYLGDLSRYQNELAGVDTELLAE [SMG5] | 2.51 ± 0.2 | 2.74 ± 0.11 | – | –
LWLTASQPCSIVDVEFLPVYHPSP [LPCAT4] | 3.02 ± 0.74 | 2.53 ± 0.37 | – | –
LYLLSGSIIAVAMQRGARLPAEVA [POMT2] | 2.81 ± 0.38 | 3.21 ± 0.77 | – | –
LYSQLLQAYKWSNKLQYHAGLASG [MED27] | 3.28 ± 0.55 | 2.67 ± 0.71 | – | –
MAAAEPSPRRVGFVGAGRMAGAIA [PYCR3] | 2.97 ± 0.079 | 3.38 ± 0.073 | – | –
MAALSRALGPLRTPAPPLWIGLFL | 2.35 ± 0.26 | 2.28 ± 0.63 | – | –
MAGNFWQSSHYLQWILDKQDLLKE [CCNC] | 2.34 ± 0.32 | 2.57 ± 0.38 | – | –
MALEPNTTFLRKSLKAALKHLGP [FANCE] | – | – | 2.48 ± 0.25 | 2.33 ± 0.17

Sequence | protein stability index [1] | protein stability index [2] | protein stability index (treatment: DMSO, c terminus: native) | protein stability index (treatment: MLN4924 1 uM, 8 h, c terminus: native)
MASSSTVPLGFHYETKYVVLSYLG [BCL2L13] | 2.64 ± 0.48 | 2.33 ± 0.45 | – | –
MATRSSDWLRRPLGEDNQPETQLF [TLE6] | 3.91 ± 0.1 | 3.87 ± 0.1 | – | –
MDVERQETPEWLDSDSCQKCDQPF [WDFY2] | 5.11 ± 0.25 | 5.08 ± 0.15 | – | –
MEAPGLAQAAAAESDSRKVAEETP [PRKX] | 5.56 ± 0.38 | 5.54 ± 0.31 | – | –
MEPAVSEPMRDQVARTHLTEDTPK [NSDHL] | 5.57 ± 0.16 | 5.51 ± 0.22 | – | –
MESKEKRAVNSLSMENANQENEEK [BEX1] | 5.5 ± 0.25 | 5.52 ± 0.23 | – | –
MFTSELSEKGKPYVDIQGLTASTM [KLHL12] | 2.54 ± 0.31 | 2.88 ± 0.46 | – | –
MGGAVSAGEDNDDLIDNLKEAQYI [PCMTD1] | 4.82 ± 0.086 | 4.64 ± 0.17 | – | –
MGSSQATMTSSQSMNFSMMSTNTV [CLINT1] | 3.28 ± 0.27 | 3.64 ± 0.25 | – | –
MGSTESSEGRRVSFGVDEEERVRV [CHCHD6] | 5.15 ± 0.29 | 5.22 ± 0.13 | – | –
MLIFWTITLFLLGAAKGKEVCYED [PNLIPRP1] | 3.72 ± 0.18 | 3.3 ± 0.69 | – | –
MLQIVVGVRDSGSPPLHANTSLHV [PCDHGC5] | 2.6 ± 0.47 | 2.91 ± 0.72 | – | –
MLSIFYFAIPVGSGLGYIAGSKVK [SPNS1] | 2.83 ± 0.34 | 3.05 ± 0.4 | – | –
MMKPQAETGEAARDPSLRPARTVL | 4.18 ± 0.13 | 4.33 ± 0.13 | – | –
MMSVNGQAKTHTDSSEKELEPEAA [ACBD3] | 5.45 ± 0.21 | 5.38 ± 0.23 | – | –
MNEVEKTMEYSMVGRTVLDMLIRE [RSPH3] | 2.59 ± 0.56 | 2.16 ± 0.22 | – | –
MQELTEMLGFRPYRFYFYMWKFVS [SLC6A17] | 2.39 ± 0.21 | 2.35 ± 0.35 | – | –
MQNLNDRLASYLDKVRALEEANAD [KRT15] | 4.22 ± 0.32 | 4.37 ± 0.23 | – | –
MQPPPPGPLGDCLRDWEDLQQDFQ [TMEM120A] | 4.86 ± 0.2 | 4.66 ± 0.2 | – | –
MRLSKTLVDMDMADYSAALDPAYT [HNF4A] | 2.86 ± 0.28 | 3.08 ± 0.25 | – | –
MRTGQNTWESKNILAVSFAPLVQP [PCMTD1] | 2.84 ± 0.65 | 2.71 ± 0.46 | – | –
MVHQRKLEAELLQIEERHQEKKRK [SMARCE1] | 4.58 ± 0.34 | 4.36 ± 0.32 | – | –

Sequence | protein stability index [1] | protein stability index [2] | protein stability index (treatment: DMSO, c terminus: native) | protein stability index (treatment: MLN4924 1 uM, 8 h, c terminus: native)
MVPHNLETTERMKCLYYLYATLDL [PDS5B] | 2.14 ± 0.29 | 2.16 ± 0.38 | – | –
MWGQSLLPPVSTSFTTGGLRIPFP [TNXB] | 2.3 ± 0.41 | 2.42 ± 0.16 | – | –
MYHYLQFAYYKLNDVRQAARSAAS [P3H4] | 2.05 ± 0.42 | 2.33 ± 0.37 | – | –
MYSVEITVEKDKVTGETRVLSSTT [PALM] | 2.93 ± 0.21 | 3.19 ± 0.16 | – | –
NATDPDEGTNGQLDYSFGDHTSEA [PCDHGC5] | 5.45 ± 0.32 | 5.24 ± 0.12 | – | –
NCKPLKSYMLQDSLEHVQLFDLMR [CLK3] | 2.11 ± 0.31 | 2.25 ± 0.35 | – | –
NDRLYAIGGNHLKGFSHLDVMLVE [KLHL14] | 2.35 ± 0.33 | 2.58 ± 0.17 | – | –
NELVKCIEELCQKREELCRQIQEE [SSNA1] | 3.62 ± 0.33 | 3.76 ± 0.26 | – | –
NERDSSEPGNFIPLFTPQSPVTAT [CDC25A] | 4.65 ± 0.48 | 4.65 ± 0.33 | – | –
NFCHIHNCIHRDIKPENILITKQG [CDKL4] | 2.53 ± 0.067 | 2.74 ± 0.43 | – | –
NGCRSGEIFAIDLRCGNQGKGWKA [DCAF4] | 2.31 ± 0.35 | 2.2 ± 0.29 | – | –
NGTKADGKDAKTTNGHGGEAAEGK [TRIM29] | 5.48 ± 0.2 | 5.55 ± 0.12 | – | –
NIMGIENICELAARMLFSAVEWAR [NR2F2] | 3.04 ± 0.18 | 2.79 ± 0.25 | – | –
NKKRGWRRLAQEPLGLEVDQFLED [NOP53] | 4.45 ± 0.35 | 4.34 ± 0.18 | – | –
NLDTEELCEYFSQHLGEYENVLAA [NECAB1] | 2.83 ± 0.32 | 3.3 ± 0.66 | – | –
NLKNDGRQVEKRRNSGPVVEKLKQ [MMP1] | 4.58 ± 0.24 | 4.41 ± 0.49 | – | –
NLRLQRKLQREMERREALCRQLSE [CCDC6] | 3.52 ± 0.27 | 3.63 ± 0.43 | – | –
NMTQDEFKSLFGSIGDIESCKLVR [ELAVL3] | 3.28 ± 0.15 | 3.33 ± 0.46 | – | –
NQWETPPEDLQTDLAKLVDQQNPT [ZNF449] | 5.36 ± 0.21 | 5.29 ± 0.26 | – | –
NRFRVEISFHFEVTNHNIRLFEDV [TRIM43] | 2.73 ± 0.5 | 2.84 ± 0.22 | – | –
NRRMVGPDVIPLPHIYGARIKGVE [FAM189A2] | 3.19 ± 0.11 | 3.15 ± 0.27 | – | –
